Measured values taken from patent publication US20260092113A1 (Sanofi, published 2026).

Biological target: T1, human OX40 on the surface of target cells (HEK293 cells expressing human OX40, jurkat cells engineered to … (human, UniProt P43489 29-277))
T1 construct: whole, on cells; also called huOX40
T1 sequence (looked up): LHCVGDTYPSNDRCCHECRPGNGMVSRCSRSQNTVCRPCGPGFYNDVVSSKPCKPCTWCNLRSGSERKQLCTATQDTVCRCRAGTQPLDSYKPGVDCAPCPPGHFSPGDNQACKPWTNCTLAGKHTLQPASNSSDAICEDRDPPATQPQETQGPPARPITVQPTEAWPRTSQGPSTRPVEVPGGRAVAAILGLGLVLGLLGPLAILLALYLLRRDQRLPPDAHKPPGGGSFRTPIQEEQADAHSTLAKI
Test: flow cytometry on HEK293 cells expressing human OX40, anti-human IgG Fc PE, MFI
From the text: The cell lines used were HEK293 cells expressing human OX40 or cyno OX40, jurkat cells, and jurkat cells engineered to express human OX40. […] Frozen target cells were thawed and seeded at 5×10⁴ cells per well.
For live dead cell discrimination cells were stained according to manufacturer's protocol using the LIVE/DEAD™ Fixable Yellow Dead Cell Stain Kit (Molecular Probes, L34959).

B1: bispecific antibody L1 (anti-CD28/anti-OX40) (bispecific antibody, human IgG1, kappa, L234A L235A)
light: not shown
heavy: not shown
chain: DVQLVESGGGVVQPGGSLRLSCAASGSFFSIDTMDWYRQAPGKQRELVTGVTSGGLTNYADSVKGRFTISIDNAKNTVYLQMNSLRPEDTALYYCSARIRTSGGGGWSTYWGQGTLVTVSSGGGGSDKTHTCPPCPAPEAAGGPSVFLFPPKPKDTLMISRTPEVTCVVVDVSHEDPEVKFNWYVDGVEVHNAKTKPREEQYNSTYRVVSVLTVLHQDWLNGKEYKCKVSNKALPAPIEKTISKAKGQPREPQVCTLPPSRDELTKNQVSLSCAVKGFYPSDIAVEWESNGQPENNYKTTPPVLDSDGSFFLVSKLTVDKSRWQQGNVFSCSVMHEALHNRFTQKSLSLSPG
notes: also called L1 & L4 OX40 arm x L1 & L3 & L2 CD28 arm
In the case of B1, the “EC50 (read off the curve)” value is reported as ~0.8 nM.
